Test results reported in patent US20060019335A1, “Compositions and methods to promote c-IAP autodegradation” (priority 2004, published 2006).
Entries after “also recorded” stand apart in the source; their conditions may differ.

T1: Livin α (Homo sapiens, UniProt Q96CA5)
T1 construct: expressed in transfected cells; host or cells: HeLa
T1 sequence (Q96CA5 1-298): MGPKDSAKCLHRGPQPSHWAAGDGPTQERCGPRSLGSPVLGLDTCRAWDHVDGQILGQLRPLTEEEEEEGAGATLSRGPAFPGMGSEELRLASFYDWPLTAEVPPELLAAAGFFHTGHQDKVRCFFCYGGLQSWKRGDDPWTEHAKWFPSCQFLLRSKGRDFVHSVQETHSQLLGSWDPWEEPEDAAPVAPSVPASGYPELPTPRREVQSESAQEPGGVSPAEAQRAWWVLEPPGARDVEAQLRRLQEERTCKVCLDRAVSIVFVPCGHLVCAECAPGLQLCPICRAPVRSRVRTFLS


Key:
[1] = system: IAP proteins (GST fusion form); experiment: GST pull-down of purified IAP proteins with Smac, silver staining; format: binding, human; details: equimolar concentrations, 2 hours at 4° C., FIG. 4
Protocol: The ability of various IAP proteins to bind Smac WT polypeptide and Smac ΔA mutant polypeptide was also examined. The results are depicted in FIG. 4. Briefly, purified IAP proteins (GST fusion form; as indicated in FIG. 4) were incubated with equimolar concentrations of either Smac or Smac ΔA in a buffer containing 20 mM phosphate (pH 7.4), 200 mM NaCl and 0.05% Tween 20 for 2 hours at 4° C. The GST-fused IAP proteins were pulled down by Glutathione Sepharose beads. The resulting […] were subjected to SDS-PAGE followed by silver staining. Lane M of FIG. 4 is the protein marker. […] The reason for this IBM-independent acceleration on XIAP and Livin ubiquitylation is unknown.

c-IAP1 = experiment: Co-transfection of HeLa cells with c-IAP1 and Smac plasmids, Western blot; format: cell-based, human; details: for auto-ubiquitylation (E3 activity) of c-IAP1: co-transfection, FIG. 2A
Protocol: (§1) Transfection of cultured Cells—HeLa cells were grown in DMEM supplemented with 10% fetal bovine serum. Cells were seeded onto 6-well plates the day before transfection and transfected at 70% confluence by using Lipofectin combined with Plus reagent (Invitrogen) according to the manufacture's protocols. The IAP expression plasmids (3 μg each for c-IAP1, c-IAP2 and XIAP, and 250 ng each for Livin αand Livin β) together with 2.5 μg of Smac expression plasmids or pcDNA3.1(−) blank plasmid were used for single-well transfection in the absence of antibiotics. The cells were harvested 12 hours after the transfection and lysed with 0.5% CHAPS in 20 mM HEPES (pH 7.4), 10 mM KCl, 1 mM MgCl2 and 1 mM DTT. The lysates were centrifuged and the protein concentrations of the supernatants were quantified by the modified Bradford method (36).
(§2) Western Blot analysis—Proteins were resolved by SDS-PAGE and transferred to nitrocellulose filters. The filters were blocked with 5% milk and probed with antibodies as indicated. The signals were visualized with the enhanced chemiluminescence method.
(§3) To investigate the effect of Smac polypeptide on IAP protein levels, HeLa cells were transfected with the expression vectors for Smac and various IAPs. Briefly, HeLa cells were either transfected with IAP alone (Lane 2, 4 and 6), or together with Smac polypeptide (Lane 3, 5 and 7), or with Smac polypeptide alone (Lane 1). Equal amounts of cell lysates (7 μg) were immunoblotted with either the HRP-conjugated anti-FLAG antibody (shown in the top panel) in order to detect N-terminal 3×FLAG tagged IAPs, or with the anti-c-Myc antibody (bottom panel) to detect C-terminal c-Myc tagged Smac. The ubiquitin fusion technique was used to secure the production of mature Smac protein with the expected N-terminal AVPI motif (6, 37).
(§4) Because it is known that the His^588 residue in the RING finger domain is important for the IAP E3 activity (22), this residue was mutated to test whether Smac stimulated the ubiquitylation-mediated degradation of both c-IAP1 and c-IAP2. In each case, His^588 in c-IAP1 and His^574 in c-IAP2 was mutated to Ala (H588A mutant and H574A mutant, respectively) and the results are depicted in FIGS. 2A and 2B. The c-IAP1 WT or H588A mutant plasmids together with either Smac WT or Smac ΔA mutant, or with pcDNA3.1 (−) blank plasmid were co-transfected into HeLa cells (FIG. 2A). The c-IAP2 WT or H574A mutant plasmids together with either Smac WT or Smac ΔA mutant, or with pcDNA3.1 (−) blank plasmid were co-transfected into HeLa cells (FIG. 2B). As controls, HeLa cells were also transfected with either Smac WT or ΔA plasmids together with the blank p3×FLAG-CMV-7 plasmid. The transfected cells were cultivated either in the absence (see lanes 1-7 of FIGS. 2A and 2B) or in the presence (see lanes 8-14 of FIGS. 2A and 2B) of MG132. Equal amounts of soluble proteins (7 μg) from the transfected cells were immunoblotted with either the HRP-conjugated anti-FLAG antibody (see top panel of FIGS. 2A and 2B) to detect N-terminal 3×FLAG tagged IAPs, or with the anti-c-Myc antibody (see middle panel of FIGS. 2A and 2B) to detect C-terminal c-Myc tagged Smac. The anti-Actin immunoblotting results were to show equal protein loading (see bottom panel of FIGS. 2A and 2B).

Livin α = target: T1, Livin α; experiment: Co-transfection of HeLa cells with Livin α and Smac plasmids, Western blot; format: cell-based; details: for auto-ubiquitylation of Livin: FIG. 3B
Protocol: as §1, §2
In the current study, Livin was also transiently expressed in HeLa cells to determine the ubiquitylation activity (see FIG. 3B). Briefly, Livin α WT or H269A mutant plasmids together with Smac WT or Smac ΔA mutant, or with pcDNA3.1(−) blank plasmid, were co-transfected into HeLa cells. As controls, HeLa cells were also transfected with either Smac WT or ΔA plasmids together with the blank p3×FLAG-CMV-7 plasmid. The transfected cells were cultivated either in the absence (see lanes 1-7 of FIG. 3B) or in the presence (see lane 8-14 of FIG. 3B) of MG132. Equal amounts of soluble proteins (7 μg) from the transfected cells were immunoblotted with either the HRP-conjugated anti-FLAG antibody (see top panel of FIG. 3B) to detect N-terminal 3×FLAG tagged IAPs, or with the anti-c-Myc antibody (see middle panel of FIG. 3B) to detect Smac. The anti-Actin immunoblotting results were to show equal protein loading (see bottom panel of FIG. 3B). […]

c-IAP2 = target: T2, c-IAP2 (Homo sapiens, UniProt Q13489); experiment: Co-transfection of HeLa cells with c-IAP2 and Smac plasmids, Western blot; format: cell-based; details: for ubiquitylation and degradation (E3 activity) of c-IAP2: co-transfection, FIG. 2B
T2 construct: produced not only the expected full length c-IAP1 or c-IAP2; expressed in transfected cells; host or cells: HeLa
Protocol: as §1, §2, §3, §4

[2] = mature Smac co-expressed, FIG. 1
[3] = listed as Smac mutant lacking the initial Ala residue

T2 sequence (Q13489 whole entry): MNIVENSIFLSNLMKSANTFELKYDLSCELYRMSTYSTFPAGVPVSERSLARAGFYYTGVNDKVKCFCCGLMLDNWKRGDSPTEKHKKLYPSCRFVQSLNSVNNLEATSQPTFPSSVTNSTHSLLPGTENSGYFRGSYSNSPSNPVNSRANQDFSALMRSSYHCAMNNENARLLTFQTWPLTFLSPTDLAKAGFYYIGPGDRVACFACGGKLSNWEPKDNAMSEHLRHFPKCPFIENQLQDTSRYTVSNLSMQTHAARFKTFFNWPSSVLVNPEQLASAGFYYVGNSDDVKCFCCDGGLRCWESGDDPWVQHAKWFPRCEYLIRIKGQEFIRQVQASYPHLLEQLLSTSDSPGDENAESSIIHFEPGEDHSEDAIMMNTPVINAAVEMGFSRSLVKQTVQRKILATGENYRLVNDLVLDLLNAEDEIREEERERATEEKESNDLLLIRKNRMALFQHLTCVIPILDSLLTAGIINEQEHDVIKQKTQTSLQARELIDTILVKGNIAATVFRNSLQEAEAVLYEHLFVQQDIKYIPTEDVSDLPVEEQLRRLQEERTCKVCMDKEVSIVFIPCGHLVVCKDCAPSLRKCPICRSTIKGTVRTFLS

Row | binding to IAP proteins [1] | level of c-IAP2 (c-IAP2; co-expression, absence of MG132, FIG. 2B) | protein level of c-IAP2 (c-IAP2; [2]) | binding to IAP proteins [1, 3] | Molecule | level of wild type c-IAP1 (c-IAP1; co-expression, absence of MG132, FIG. 2A) | levels of non-/mono-/di-ubiquitylated and highly ubiquitylated c-IAP1 forms (c-IAP1; co-expression, presence of MG132, FIG. 2A) | level of E3-negative H588A c-IAP1 (c-IAP1; either in the absence or in the presence of MG132) | protein level of c-IAP1 (c-IAP1; [2]) | auto-ubiquitylation of Livin (Livin α) | degradation of Livin α (Livin α; absence of MG132, FIG. 3B) | ubiquitylation and degradation (E3 activity) of c-IAP2 (c-IAP2) | auto-ubiquitylation (E3 activity) of c-IAP1 (c-IAP1) | auto-ubiquitylation (E3 activity) of c-IAP1 (c-IAP1; [3])
1 | bind | nearly non-detectable level | significantly decreased | – | Smac: wild type (WT) Smac polypeptide from Homo sapiens, SEQ ID NO 1, 239 amino acids; second mitochondria-derived activator of caspase (protein, listed as Homo sapiens) MAALKSWLSRSVTSFFRYRQCLCVPVVANFKKRCFSELIRPWHKTVTIGFGVTLCAVPIAQKSEPHSLSSEALMRRAVSLVTDSTSTFLSQTTYALIEAITEYTKAVYTLTSLYRQYTSLLGKMNSEEEDEVWQVIIGARAEMTSKHQEYLKLETTWMTAVGLSEMAAEAAYQTGADQASITARNHIQLVKLQVEEVHQLSRKAETKLAEAQIEELRQKTQEEGEERAESEQEAYLRED | nearly complete disappearance of c-IAP1; also recorded: nearly non-detectable level | reduction in the level of non-ubiquitylated and mono-/di-ubiquitylated wild type c-IAP1 and a concomitant increase in the level of highly ubiquitylated c-IAP1 forms | did not cause a drastic change | significantly decreased | effectively stimulates auto-ubiquitylation of Livin α | slightly promoted the degradation of Livin α | strongly promoted the ubiquitylation and degradation of c-IAP2 | – | –
2 | failure to bind | – | – | did not bind IAP proteins | Smac ΔA: Smac mutant lacking the initial Ala (Ala deletion mutant polypeptide), used as negative control (protein, UniProt Q9NR28 22-239, looked up, variant A1*) Diablo IAP-binding …: LCVPVVANFKKRCFSELIRPWHKTVTIGFGVTLCVPIAQKSEPHSLSSEALMRRAVSLVTDSTSTFLSQTTYALIEAITEYTKAVYTLTSLYRQYTSLLGKMNSEEEDEVWQVIIGARAEMTSKHQEYLKLETTWMTAVGLSEMAAEAAYQTGADQASITARNHIQLVKLQVEEVHQLSRKAETKLAEAQIEELRQKTQEEGEERAESEQEAYLRED | – | – | – | – | stimulated the auto-ubiquitylation of XIAP and Livin | – | did not promote the E3 activity | did not enhance the auto-ubiquitylation of c-IAP1 | did not promote the E3 activity
